Experimental data: the supplement of paper PMC9112550, “Optimization of the antimicrobial peptide Bac7 by deep mutational scanning” (BMC Biology, 2022)

Tested on: Escherichia coli TOP10
Experiment: shrunken log2 fold change of peptide-encoding DNA abundance (4.5 h post-induction vs induction); higher = less antimicrobial activity (less host growth inhibition)
Settings: time post-induction: 4.5 h; library: site-saturation at positions 5, 18, 19, 20
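Also: peptides expressed intracellularly from a pBAD plasmid library in pooled LB shake-flask culture, induced with 0.3% L-arabinose, DNA abundance read by NGS, three biological replicates, DESeq2 with apeglm shrinkage.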

| Sequence | shrunken log2 fold change |
| --- | --- |
| RRIRTRPPRLPRPRPRPHYMPRP | -0.476 |
| RRIRVRPPRLPRPRPRPQTAPRP | 0.0297 |
| RRIRERPPRLPRPRPRPEMMPRP | -0.269 |
| RRIRWRPPRLPRPRPRPDMMPRP | -0.0236 |
| RRIRYRPPRLPRPRPRPEVSPRP | -0.117 |
| RRIRSRPPRLPRPRPRPEFRPRP | 0.15 |
| RRIRWRPPRLPRPRPRPPAWPRP | 0.794 |
| RRIRIRPPRLPRPRPRPMYNPRP | -0.429 |
| RRIRWRPPRLPRPRPRPILRPRP | -0.0505 |
| RRIRPRPPRLPRPRPRPLCPPRP | -0.128 |
| RRIRSRPPRLPRPRPRPWNIPRP | -0.0599 |
| RRIRNRPPRLPRPRPRPIMNPRP | -0.619 |
| RRIRFRPPRLPRPRPRPPHMPRP | -0.137 |
| RRIRIRPPRLPRPRPRPSAEPRP | -0.0944 |
| RRIRHRPPRLPRPRPRPELHPRP | 0.00184 |
| RRIRARPPRLPRPRPRPMQYPRP | 0.00958 |
| RRIRQRPPRLPRPRPRPSKSPRP | -0.332 |
| RRIRDRPPRLPRPRPRPIIDPRP | -0.02 |
| RRIRSRPPRLPRPRPRPLRFPRP | 0.926 |
| RRIRTRPPRLPRPRPRPVKDPRP | -0.0913 |
| RRIRMRPPRLPRPRPRPLLQPRP | 0.616 |
| RRIRMRPPRLPRPRPRPQFGPRP | 0.104 |
| RRIRIRPPRLPRPRPRPDYGPRP | -0.117 |
| RRIRWRPPRLPRPRPRPRHFPRP | 0.223 |
| RRIRDRPPRLPRPRPRPSDAPRP | -0.218 |

| Sequence | shrunken log2 fold change |
| --- | --- |
| RRIRHRPPRLPRPRPRPLQDPRP | -0.0821 |
| RRIRYRPPRLPRPRPRPFFCPRP | -0.644 |
| RRIRCRPPRLPRPRPRPKSQPRP | 0.276 |
| RRIRFRPPRLPRPRPRPNSHPRP | -0.432 |
| RRIRTRPPRLPRPRPRPRMEPRP | -0.0325 |
| RRIRRRPPRLPRPRPRPHPDPRP | 0.474 |
| RRIRYRPPRLPRPRPRPTRVPRP | 0.303 |
| RRIRVRPPRLPRPRPRPHNLPRP | -0.356 |
| RRIRHRPPRLPRPRPRPYFNPRP | -0.882 |
| RRIRDRPPRLPRPRPRPFQKPRP | 0.158 |
| RRIRQRPPRLPRPRPRPKQMPRP | 0.114 |
| RRIRLRPPRLPRPRPRPGGAPRP | 0.384 |
| RRIRDRPPRLPRPRPRPHPDPRP | -0.116 |
| RRIRHRPPRLPRPRPRPKNLPRP | 0.133 |
| RRIRSRPPRLPRPRPRPCNTPRP | -0.324 |
| RRIRRRPPRLPRPRPRPVEQPRP | 0.0679 |
| RRIRARPPRLPRPRPRPSSKPRP | -0.134 |
| RRIRLRPPRLPRPRPRPSLRPRP | 0.00716 |
| RRIRCRPPRLPRPRPRPRLEPRP | 0.299 |
| RRIRPRPPRLPRPRPRPMLAPRP | 0.281 |
| RRIRERPPRLPRPRPRPNVDPRP | -0.0153 |
| RRIRWRPPRLPRPRPRPRIQPRP | 0.273 |
| RRIRRRPPRLPRPRPRPNWPPRP | 0.118 |
| RRIRVRPPRLPRPRPRPRTMPRP | 0.0485 |
| RRIRMRPPRLPRPRPRPMRPPRP | 1.79 |

| Sequence | shrunken log2 fold change |
| --- | --- |
| RRIRPRPPRLPRPRPRPDHFPRP | -0.0536 |
| RRIRYRPPRLPRPRPRPDKSPRP | -1.15 |
| RRIRKRPPRLPRPRPRPEAEPRP | 3.31 |
| RRIRTRPPRLPRPRPRPPLFPRP | 0.482 |
| RRIRNRPPRLPRPRPRPWAFPRP | -0.014 |
| RRIRYRPPRLPRPRPRPDNNPRP | -0.189 |
| RRIRSRPPRLPRPRPRPMPSPRP | -0.194 |
| RRIRNRPPRLPRPRPRPVNHPRP | -0.163 |
| RRIRNRPPRLPRPRPRPLIAPRP | -0.305 |
| RRIRMRPPRLPRPRPRPQSMPRP | 0.143 |
| RRIRRRPPRLPRPRPRPKWDPRP | 0.139 |
| RRIRSRPPRLPRPRPRPHNFPRP | -0.49 |
| RRIRYRPPRLPRPRPRPNSHPRP | -0.839 |
| RRIRARPPRLPRPRPRPLYQPRP | 0.141 |
| RRIRVRPPRLPRPRPRPHMLPRP | -0.311 |
| RRIRDRPPRLPRPRPRPADMPRP | -0.119 |
| RRIRKRPPRLPRPRPRPSLGPRP | 0.343 |
| RRIRNRPPRLPRPRPRPGKKPRP | -0.00783 |
| RRIRERPPRLPRPRPRPKMIPRP | -0.399 |
| RRIRKRPPRLPRPRPRPHAPPRP | 0.485 |
| RRIRCRPPRLPRPRPRPEHNPRP | -0.377 |
| RRIRERPPRLPRPRPRPVYFPRP | -0.207 |
| RRIRIRPPRLPRPRPRPHNKPRP | -0.976 |
| RRIRLRPPRLPRPRPRPQVCPRP | -0.00713 |
| RRIRHRPPRLPRPRPRPDQIPRP | -0.0166 |

| Sequence | shrunken log2 fold change |
| --- | --- |
| RRIRYRPPRLPRPRPRPNQLPRP | -0.439 |
| RRIRNRPPRLPRPRPRPFEMPRP | 0.0463 |
| RRIRARPPRLPRPRPRPMDSPRP | -0.104 |
| RRIRRRPPRLPRPRPRPHQHPRP | 0.0389 |
| RRIRRRPPRLPRPRPRPNMFPRP | -0.047 |
| RRIRMRPPRLPRPRPRPKCHPRP | 0.335 |
| RRIRIRPPRLPRPRPRPWQLPRP | -0.0817 |
| RRIRSRPPRLPRPRPRPQQYPRP | -0.525 |
| RRIRNRPPRLPRPRPRPWLHPRP | -0.0277 |
| RRIRNRPPRLPRPRPRPPCFPRP | -0.00581 |
| RRIRYRPPRLPRPRPRPSYQPRP | -1.27 |
| RRIRPRPPRLPRPRPRPHNMPRP | -0.745 |
| RRIRVRPPRLPRPRPRPFSYPRP | -0.012 |
| RRIRTRPPRLPRPRPRPYSHPRP | -0.04 |
| RRIRVRPPRLPRPRPRPDPRPRP | 0.395 |
| RRIRFRPPRLPRPRPRPDCAPRP | 0.0274 |
| RRIRKRPPRLPRPRPRPENIPRP | -0.0813 |
| RRIRGRPPRLPRPRPRPSFRPRP | 0.0601 |
| RRIRWRPPRLPRPRPRPWAKPRP | 0.279 |
| RRIRRRPPRLPRPRPRPSQEPRP | -0.225 |
| RRIRERPPRLPRPRPRPCRTPRP | -0.203 |
| RRIRERPPRLPRPRPRPCRKPRP | -0.103 |
| RRIRDRPPRLPRPRPRPPIVPRP | -0.161 |
| RRIRDRPPRLPRPRPRPIMVPRP | -0.103 |
| RRIRTRPPRLPRPRPRPNAYPRP | -0.195 |

| Sequence | shrunken log2 fold change |
| --- | --- |
| RRIRCRPPRLPRPRPRPIECPRP | -0.00475 |
| RRIRERPPRLPRPRPRPENKPRP | -0.697 |
| RRIRERPPRLPRPRPRPMRYPRP | 0.000213 |
| RRIRWRPPRLPRPRPRPDVCPRP | -0.0101 |
| RRIRLRPPRLPRPRPRPPKMPRP | 0.159 |
| RRIRGRPPRLPRPRPRPSGYPRP | -0.167 |
| RRIRFRPPRLPRPRPRPKMAPRP | -0.0582 |
| RRIRGRPPRLPRPRPRPNDKPRP | 0.342 |
| RRIRIRPPRLPRPRPRPKLSPRP | 0.144 |
| RRIRNRPPRLPRPRPRPEQVPRP | 0.0249 |
| RRIRWRPPRLPRPRPRPTNKPRP | -0.195 |
| RRIRSRPPRLPRPRPRPNLTPRP | -0.15 |
| RRIRQRPPRLPRPRPRPQSVPRP | 0.0191 |
| RRIRPRPPRLPRPRPRPHLEPRP | -0.122 |
| RRIRARPPRLPRPRPRPDFFPRP | 0.307 |
| RRIRYRPPRLPRPRPRPMGGPRP | -0.264 |
| RRIRERPPRLPRPRPRPVMMPRP | -0.144 |
| RRIRKRPPRLPRPRPRPGDIPRP | -0.227 |
| RRIRPRPPRLPRPRPRPHRQPRP | -0.149 |
| RRIRKRPPRLPRPRPRPAKAPRP | 0.106 |
| RRIRRRPPRLPRPRPRPCCRPRP | 0.197 |
| RRIRARPPRLPRPRPRPFYYPRP | -0.485 |
| RRIRARPPRLPRPRPRPWYQPRP | -0.287 |
| RRIRIRPPRLPRPRPRPIGSPRP | -0.0175 |
| RRIRVRPPRLPRPRPRPFYVPRP | 1.07 |

| Sequence | shrunken log2 fold change |
| --- | --- |
| RRIRIRPPRLPRPRPRPHACPRP | -1.14 |
| RRIRTRPPRLPRPRPRPNYWPRP | -0.208 |
| RRIRERPPRLPRPRPRPIFGPRP | -0.112 |
| RRIRCRPPRLPRPRPRPNIYPRP | -0.588 |
| RRIRERPPRLPRPRPRPQISPRP | -0.0116 |
| RRIRHRPPRLPRPRPRPHKNPRP | -0.263 |
| RRIRYRPPRLPRPRPRPDGPPRP | 0.123 |
| RRIRPRPPRLPRPRPRPASGPRP | 0.194 |
| RRIRSRPPRLPRPRPRPWHEPRP | -0.103 |
| RRIRGRPPRLPRPRPRPENAPRP | 1.03 |
| RRIRHRPPRLPRPRPRPDDRPRP | -0.144 |
| RRIRTRPPRLPRPRPRPSTSPRP | -0.239 |
| RRIRMRPPRLPRPRPRPTRDPRP | 0.314 |
| RRIRNRPPRLPRPRPRPCSEPRP | -0.231 |
| RRIRARPPRLPRPRPRPIAKPRP | 0.217 |
| RRIRKRPPRLPRPRPRPDLDPRP | 0.109 |
| RRIRCRPPRLPRPRPRPIWAPRP | -0.0162 |
| RRIRARPPRLPRPRPRPSYMPRP | -0.761 |
| RRIRIRPPRLPRPRPRPRTCPRP | -0.282 |
| RRIRQRPPRLPRPRPRPVVLPRP | -0.227 |
| RRIRFRPPRLPRPRPRPRYTPRP | -0.15 |
| RRIRVRPPRLPRPRPRPFCVPRP | -0.0102 |
| RRIRWRPPRLPRPRPRPWLWPRP | 0.242 |
| RRIRLRPPRLPRPRPRPDGDPRP | 0.234 |
| RRIRIRPPRLPRPRPRPLLGPRP | -0.175 |
